The nature of this data set: protein stability index of a GFP-peptide fusion (yeast GPS) (PSI 1-4); higher = more stable; sorted into four equal gates, so the index is relative within each strain. The procedure, abridged: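 Tiled 17-residue yeast protein peptides were fused downstream of GFP in a plasmid that also expresses Cherry, and the pooled library was carried in yeast. Mid-log cultures in leucine-free medium were sorted into four equal gates by GFP/Cherry fluorescence ratio, and plasmids from each gate were PCR-amplified and Illumina-sequenced, with reads assigned to strains by barcodes. The protein stability index for each peptide was each gate's read frequency times its gate number, summed.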

± gives the uncertainty stated by the source.

On to DLNHVTEELQTQYATSQ [SMC2], for which the protein stability index by setting is: (doa10∆) 3.11 ± 0.19; (pdr5∆) 3.17 ± 0.12; (san1∆) 3.16 ± 0.1; (ubr1∆) 3.44 ± 0.2.

For DLNPLKTLNLFKQIKSA [RPO31], the protein stability index reads like this: (doa10∆) 2 ± 0.16; (pdr5∆) 1.37 ± 0.033; (san1∆) 2.62 ± 0.11; (ubr1∆) 2.15 ± 0.071.

As for DLPETGFFENIETEFLL [IRR1], the protein stability index reads like this: (doa10∆) 3.13 ± 0.075; (pdr5∆) 3.18 ± 0.1; (san1∆) 3.22 ± 0.047; (ubr1∆) 3.13 ± 0.066.

Take DLQRTQTLSEKEYQCSA [YIL149C/MLP2]: the protein stability index (doa10∆) was determined as 2.98 ± 0.1, the protein stability index (pdr5∆) is 2.97 ± 0.091, the protein stability index (san1∆) was 3.11 ± 0.069 and the protein stability index (ubr1∆) was found to be 2.96 ± 0.069.

Regarding DLSWSKQTDTGITHFRA [PRP8], the protein stability index was 2.85 ± 0.085 (doa10∆), 3.11 ± 0.057 (pdr5∆), 3 ± 0.055 (san1∆) and 3.02 ± 0.049 (ubr1∆).

Turning to DLVLGKPLADLRPLFTR [YLR335W/NUP2], the protein stability index came to 2.97 ± 0.072 (doa10∆), 2.76 ± 0.11 (pdr5∆), 2.84 ± 0.16 (san1∆) and 2.27 ± 0.069 (ubr1∆).

Take DMENMADEQKRSTDVWY [ARP7]: the protein stability index reads like this: (doa10∆) 2.35 ± 0.05; (pdr5∆) 2.31 ± 0.04; (san1∆) 2.62 ± 0.053; (ubr1∆) 2.55 ± 0.044.

In the case of DMLKYKEDEPVVARRSN [ITC1], the protein stability index is 2.96 ± 0.1 (doa10∆), 2.42 ± 0.098 (pdr5∆), 1.84 ± 0.084 (san1∆) and 1.76 ± 0.063 (ubr1∆).

For the sequence DNFDYFNQRDGEHEKSN [MED1], the protein stability index came to 2.86 ± 0.098 (doa10∆), 3 ± 0.2 (pdr5∆), 3.19 ± 0.15 (san1∆) and 3.56 ± 0.14 (ubr1∆).

Take DNIDEKVVKAIRIYFTE [NUT1]: the protein stability index is, setting by setting: (doa10∆) 3.12 ± 0.092; (pdr5∆) 3 ± 0.061; (san1∆) 3.04 ± 0.048; (ubr1∆) 2.39 ± 0.036.

DNISSFHSAVENLVQGN [YCG1]: the protein stability index amounted to 3.26 ± 0.08 (doa10∆), 3 ± 0.064 (pdr5∆), 3.17 ± 0.067 (san1∆) and 3.31 ± 0.11 (ubr1∆).

As to DNMSEEQWLRQFEVSDD [SNF2], the protein stability index worked out at 3.46 ± 0.099 (doa10∆), 3.22 ± 0.094 (pdr5∆), 3.16 ± 0.12 (san1∆) and 3.36 ± 0.079 (ubr1∆).

Take DNSESHPFIPLLKEKPN [RRP6]: the protein stability index is 1.93 ± 0.066 (doa10∆), 1.93 ± 0.059 (pdr5∆), 1.99 ± 0.071 (san1∆) and 1.99 ± 0.051 (ubr1∆).

DNSPSEDFMDIPKPRTA [SNF2]: the protein stability index is 2.57 ± 0.16 (doa10∆), 2.83 ± 0.11 (pdr5∆) and 2.77 ± 0.19 (ubr1∆).

In the case of DPELLRSYIFGGHVSQY [RPL5], the protein stability index (doa10∆) came out at 3.16 ± 0.083, the protein stability index (pdr5∆) was 3.58 ± 0.13, the protein stability index (san1∆) turned out to be 3.33 ± 0.056 and the protein stability index (ubr1∆) was 3.17 ± 0.14.

As to DPESRTQSYNNQNTLKE [POP1], the protein stability index by setting is: (doa10∆) 2.72 ± 0.069; (pdr5∆) 2.69 ± 0.056; (san1∆) 2.88 ± 0.079; (ubr1∆) 2.79 ± 0.05.

As to DPRNLVNQTGSTKKDTV [YCG1], the protein stability index by setting is: (doa10∆) 2.9 ± 0.097; (pdr5∆) 3.15 ± 0.084; (san1∆) 2.53 ± 0.075; (ubr1∆) 2.86 ± 0.039.

In the case of DPSQNRLTGSLLAHKVA [RPC37], the protein stability index by setting is: (doa10∆) 2 ± 0.05; (pdr5∆) 2.15 ± 0.06; (san1∆) 1.69 ± 0.095; (ubr1∆) 2.31 ± 0.038.

On to DQFRDVEITFGKEFGDV [RRP45], for which the protein stability index reads like this: (doa10∆) 3.21 ± 0.1; (pdr5∆) 3.27 ± 0.063; (san1∆) 3.54 ± 0.086; (ubr1∆) 3.18 ± 0.067.

DQLIISSSANKLLQLFL [YML103C/NUP188]: the protein stability index runs as follows: (doa10∆) 1.91 ± 0.063; (pdr5∆) 2.17 ± 0.066; (san1∆) 1.89 ± 0.086; (ubr1∆) 2.54 ± 0.055.

With DQSNVQYYLSVLNQQLP [BRR2], the protein stability index was determined as 2.96 ± 0.082 (doa10∆), 3.03 ± 0.072 (pdr5∆), 3.02 ± 0.06 (san1∆) and 3.03 ± 0.06 (ubr1∆).

For the sequence DQTFPINCNKETIENVK [ECM29], the protein stability index runs as follows: (doa10∆) 3.17 ± 0.082; (pdr5∆) 2.93 ± 0.099; (san1∆) 3.08 ± 0.07; (ubr1∆) 3.4 ± 0.088.

DQVVVRGIDTLQKKVAS [RPB3]: the protein stability index is 2.39 ± 0.28 (doa10∆), 3.29 ± 0.19 (pdr5∆) and 2.68 ± 0.28 (san1∆).

For DQYDAERDFYHSLREYI [RPO31], the protein stability index reads like this: (doa10∆) 3.33 ± 0.076; (pdr5∆) 3 ± 0.12; (san1∆) 3.07 ± 0.074; (ubr1∆) 3.3 ± 0.091.

On to DRHIGCVYSGLIPDGRH [PRE10], for which the protein stability index (doa10∆) was 3.18 ± 0.098, the protein stability index (pdr5∆) was 3.41 ± 0.088, the protein stability index (san1∆) came out at 3.1 ± 0.062 and the protein stability index (ubr1∆) was 3.54 ± 0.12.

Turning to DRPGSKFHKREVVEAVT [RPL3], the protein stability index came to 3.04 ± 0.15 (doa10∆), 1.96 ± 0.14 (pdr5∆), 2.02 ± 0.19 (san1∆) and 2.41 ± 0.13 (ubr1∆).

The values are drawn from the supplement of paper PMC9732359.
